Measurements published in US20090148461A1 (Kyowa Kirin, published 2009).

Biological target: T1, full length human FGF23 protein (amino acid 25 to amino acid 251 of SEQ ID NO: 4) (human, UniProt Q9GZV9 25-251)
T1 construct: also called full length FGF23; human full length FGF23 protein
T1 sequence: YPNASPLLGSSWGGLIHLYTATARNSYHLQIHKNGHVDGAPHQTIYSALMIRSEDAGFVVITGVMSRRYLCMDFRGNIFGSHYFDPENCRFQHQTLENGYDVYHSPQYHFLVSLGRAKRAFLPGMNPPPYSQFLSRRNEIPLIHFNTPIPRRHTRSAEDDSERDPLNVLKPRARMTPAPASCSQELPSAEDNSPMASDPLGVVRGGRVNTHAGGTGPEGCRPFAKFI
Experiment: ELISA screening of hybridoma supernatants

B1: C10 antibody (anti-FGF23 human monoclonal antibody produced by hybridoma C10, FERM BP-10772) (antibody, human IgG1, V domains shown)
VH: QVQLVQSGAEVKKPGASVKVSCKASGYTFTNHYMHWVRQAPGQGLEWMGIINPISGSTSNAQKFQGRVTMTRDTSTSTVYMELSSLRSEDTAVYYCARDIVDAFDFWGQGTMVTVSS
VL: AIQLTQSPSSLSASVGDRVTITCRASQGISSALVWYQQKPGKAPKLLIYDASSLESGVPSRFSGSGSGTDFTLTISSLQPEDFATYYCQQFNDYFTFGPGTKVDIK
notes: also called recombinant C10 antibody
binding result: binds
